Publication PMC8626477

Key:
[1] = biological target: E2 of the Chaetomium thermophilum pyruvate dehydrogenase complex (PDHc) (Chaetomium thermophilum); experiment: cryo-EM structure; native C. thermophilum cell extract, SEC fraction 6, vitrified at 0.3 mg/mL total protein; 10249 particles; reconstructions with icosahedral (3.85 Å), C2 (6.21 Å) and C1 (7.62 Å) symmetry
[2] = biological target: E3BP of the Chaetomium thermophilum pyruvate dehydrogenase complex (PDHc) (Chaetomium thermophilum); experiment: as above

stoichiometry N [1]	stoichiometry N [2]	Substance
60		E2 of the Chaetomium thermophilum pyruvate dehydrogenase complex (PDHc) (enzyme)
12	3	E3BP of the Chaetomium thermophilum pyruvate dehydrogenase complex (PDHc) (natural protein)
